# B1: 3-mercaptopyruvate sulfurtransferase (Homo sapiens), P25325 (parent)
# chain: MASPQLCRALVSAQWVAEALRAPRAGQPLQLLDASWYLPKLGRDARREFEERHIPGAAFFDIDQCSDRTSPYDHMLPGAEHFAEYAGRLGVGAATHVVIYDASDQGLYSAPRVWWMFRAFGHHAVSLLDGGLRHWLRQNLPLSSGKSQPAPAEFRAQLDPAFIKTYEDIKENLESRRFQVVDSRATGRFRGTEPEPRDGIEPGHIPGTVNIPFTDFLSQEGLEKSPEEIRHLFQEKKVDLSKPLVATCGSGVTACHVALGAYLCGKPDVPIYDGSWVEWYMRARPEDVISEGRGKTH
# Variants of: B1
# Details: with akt1_human AKT1, P31749
# akt1_human AKT1, P31749, sequence (P31749 whole entry): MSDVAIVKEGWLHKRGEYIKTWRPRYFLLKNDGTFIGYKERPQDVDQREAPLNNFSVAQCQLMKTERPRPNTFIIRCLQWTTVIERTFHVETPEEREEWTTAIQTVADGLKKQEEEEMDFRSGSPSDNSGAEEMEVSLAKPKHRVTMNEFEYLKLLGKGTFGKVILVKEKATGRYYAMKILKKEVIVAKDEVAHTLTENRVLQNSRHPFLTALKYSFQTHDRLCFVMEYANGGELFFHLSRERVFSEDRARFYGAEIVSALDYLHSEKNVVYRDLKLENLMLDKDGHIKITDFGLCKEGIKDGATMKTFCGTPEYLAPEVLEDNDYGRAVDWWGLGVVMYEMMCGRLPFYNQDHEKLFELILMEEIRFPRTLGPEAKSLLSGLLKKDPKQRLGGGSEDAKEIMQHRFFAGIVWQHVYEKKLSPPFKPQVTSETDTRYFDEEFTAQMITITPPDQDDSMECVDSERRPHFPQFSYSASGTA
row,effect of a mutation on the interaction,Variant
1,disrupting interaction strength,MASPQLCRALVSAQWVAEALRAPRAGQPLQLLDASWYLPKLGRDARREFEERHIPGAAFFDIDQCSDRTSPYDHMLPGAEHFAEYAGRLGVGAATHVVIYDASDQGLYSAPRVWWMFRAFGHHAVSLLDGGLRHWLRQNLPLSSGKSQPAPAEFRAQLDPAFIKTYEDIKENLESRRFQVVDSRATGRFRGTEPEPRDGIEPGHIPGTVNIPFTDFLSQEGLEKSPEEIRHLFQEKKVDLSKPLVATAGSGVTACHVALGAYLCGKPDVPIYDGSWVEWYMRARPEDVISEGRGKTH [C248A]

# Reference: IntAct's records for PubMed 36126419
